Reference: patent publication US20180148477A1 (published 2018)
Bridge positions count the residues as written; N and C are the ends. Square brackets hold non-standard residues; d marks the D form. Bip = N[C@@H](Cc1ccc(-c2ccccc2)cc1)C(=O)O; 1Nal = N[C@@H](Cc1cccc2ccccc12)C(=O)O; 2Nal = N[C@@H](Cc1ccc2ccccc2c1)C(=O)O; d1Nal = N[C@H](Cc1cccc2ccccc12)C(=O)O; NMeR = CN[C@@H](CCCNC(=N)N)C(=O)O; Tic = O=C(O)[C@@H]1Cc2ccccc2CN1; β3hE = N[C@@H](CCC(=O)O)CC(=O)O; Cha = N[C@@H](CC1CCCCC1)C(=O)O; Cit = NC(=O)NCCC[C@H](N)C(=O)O; NMeK = CN[C@@H](CCCCN)C(=O)O; Pen = CC(C)(S)[C@H](N)C(=O)O; hLeu = CC(C)CC[C@H](N)C(=O)O; Dab = NCC[C@H](N)C(=O)O

B1: SEQ ID NO: 163 (peptide)
peptide: Ac-[Pen][NMeR]SDTQ[Pen][2Nal][dE]-NH2
modifications: disulfide 1-7
SMILES: CC(=O)N[C@@H]1C(=O)N(C)[C@@H](CCCNC(=N)N)C(=O)N[C@@H](CO)C(=O)N[C@@H](CC(=O)O)C(=O)N[C@@H]([C@@H](C)O)C(=O)N[C@@H](CCC(N)=O)C(=O)N[C@H](C(=O)N[C@@H](Cc2ccc3ccccc3c2)C(=O)N[C@H](CCC(=O)O)C(N)=O)C(C)(C)SSC1(C)C
B2: SEQ ID NO: 159 (peptide)
peptide: Ac-[Pen][NMeR]SDLL[Pen][2Nal][dE]-NH2
modifications: disulfide 1-7
SMILES: CC(=O)N[C@@H]1C(=O)N(C)[C@@H](CCCNC(=N)N)C(=O)N[C@@H](CO)C(=O)N[C@@H](CC(=O)O)C(=O)N[C@@H](CC(C)C)C(=O)N[C@@H](CC(C)C)C(=O)N[C@H](C(=O)N[C@@H](Cc2ccc3ccccc3c2)C(=O)N[C@H](CCC(=O)O)C(N)=O)C(C)(C)SSC1(C)C
B3: SEQ ID NO: 158 (peptide)
peptide: Ac-[Pen][NMeR]SD[Cha]L[Pen][2Nal][dE]-NH2
modifications: disulfide 1-7
SMILES: CC(=O)N[C@@H]1C(=O)N(C)[C@@H](CCCNC(=N)N)C(=O)N[C@@H](CO)C(=O)N[C@@H](CC(=O)O)C(=O)N[C@@H](CC2CCCCC2)C(=O)N[C@@H](CC(C)C)C(=O)N[C@H](C(=O)N[C@@H](Cc2ccc3ccccc3c2)C(=O)N[C@H](CCC(=O)O)C(N)=O)C(C)(C)SSC1(C)C
B4: SEQ ID NO: 75 (peptide)
peptide: Ac-[Pen][NMeR]SDTL[Pen][2Nal]E-NH2
modifications: disulfide 1-7
SMILES: CC(=O)N[C@@H]1C(=O)N(C)[C@@H](CCCNC(=N)N)C(=O)N[C@@H](CO)C(=O)N[C@@H](CC(=O)O)C(=O)N[C@@H]([C@@H](C)O)C(=O)N[C@@H](CC(C)C)C(=O)N[C@H](C(=O)N[C@@H](Cc2ccc3ccccc3c2)C(=O)N[C@@H](CCC(=O)O)C(N)=O)C(C)(C)SSC1(C)C
B5: SEQ ID NO: 164 (peptide)
peptide: Ac-[Pen][NMeR]SDTY[Pen][2Nal][dE]-NH2
modifications: disulfide 1-7
SMILES: CC(=O)N[C@@H]1C(=O)N(C)[C@@H](CCCNC(=N)N)C(=O)N[C@@H](CO)C(=O)N[C@@H](CC(=O)O)C(=O)N[C@@H]([C@@H](C)O)C(=O)N[C@@H](Cc2ccc(O)cc2)C(=O)N[C@H](C(=O)N[C@@H](Cc2ccc3ccccc3c2)C(=O)N[C@H](CCC(=O)O)C(N)=O)C(C)(C)SSC1(C)C
B6: SEQ ID NO: 157 (peptide)
peptide: Ac-[Pen][NMeR]SDFL[Pen][2Nal][dE]-NH2
modifications: disulfide 1-7
SMILES: CC(=O)N[C@@H]1C(=O)N(C)[C@@H](CCCNC(=N)N)C(=O)N[C@@H](CO)C(=O)N[C@@H](CC(=O)O)C(=O)N[C@@H](Cc2ccccc2)C(=O)N[C@@H](CC(C)C)C(=O)N[C@H](C(=O)N[C@@H](Cc2ccc3ccccc3c2)C(=O)N[C@H](CCC(=O)O)C(N)=O)C(C)(C)SSC1(C)C
B7: SEQ ID NO: 161 (peptide)
peptide: Ac-[Pen][NMeR]SD[hLeu]L[Pen][2Nal][dE]-NH2
modifications: disulfide 1-7
SMILES: CC(=O)N[C@@H]1C(=O)N(C)[C@@H](CCCNC(=N)N)C(=O)N[C@@H](CO)C(=O)N[C@@H](CC(=O)O)C(=O)N[C@@H](CCC(C)C)C(=O)N[C@@H](CC(C)C)C(=O)N[C@H](C(=O)N[C@@H](Cc2ccc3ccccc3c2)C(=O)N[C@H](CCC(=O)O)C(N)=O)C(C)(C)SSC1(C)C
B8: SEQ ID NO: 162 (peptide)
peptide: Ac-[Pen][NMeR]SDTF[Pen][2Nal][dE]-NH2
modifications: disulfide 1-7
SMILES: CC(=O)N[C@@H]1C(=O)N(C)[C@@H](CCCNC(=N)N)C(=O)N[C@@H](CO)C(=O)N[C@@H](CC(=O)O)C(=O)N[C@@H]([C@@H](C)O)C(=O)N[C@@H](Cc2ccccc2)C(=O)N[C@H](C(=O)N[C@@H](Cc2ccc3ccccc3c2)C(=O)N[C@H](CCC(=O)O)C(N)=O)C(C)(C)SSC1(C)C
B9: SEQ ID NO: 160 (peptide)
peptide: Ac-[Pen][NMeR]SDIL[Pen][2Nal][dE]-NH2
modifications: disulfide 1-7
SMILES: CC[C@H](C)[C@@H]1NC(=O)[C@H](CC(=O)O)NC(=O)[C@H](CO)NC(=O)[C@H](CCCNC(=N)N)N(C)C(=O)[C@@H](NC(C)=O)C(C)(C)SSC(C)(C)[C@@H](C(=O)N[C@@H](Cc2ccc3ccccc3c2)C(=O)N[C@H](CCC(=O)O)C(N)=O)NC(=O)[C@H](CC(C)C)NC1=O

Target: human α4β7 integrin on cells (human) (UniProt P13612)
Test: RPMI8866 adhesion to MAdCAM-1

Binder	IC50 [nM]
B1	> 1000
Ac-[Pen][NMeR]SDTL[Pen][d1Nal]E[dK]-NH2 (disulfide 1-7; also: dimer via DIG) [SEQ ID NO: 34]	> 25
Ac-[Pen][NMeR]SDTL[Pen][2Nal][dH][dK]-NH2 (disulfide 1-7 (inferred); also: homodimer via DIG) [SEQ ID NO: 118]	> 25
Ac-[Pen][NMeR]SDVL[Pen][2Nal][dE]-NH2 (disulfide 1-7 (inferred)) [SEQ ID NO: 156]	> 100
B2	> 1000
Ac-[Pen][NMeR]SDTL[Pen][1Nal][dR][dK]-NH2 (disulfide 1-7 (inferred); also: homodimer via DIG) [SEQ ID NO: 114]	> 100
Ac-[Pen][NMeR]SDTL[Pen][2Nal][dL][dK]-NH2 (disulfide 1-7 (inferred); also: homodimer via DIG) [SEQ ID NO: 119]	> 500
B3	> 1000
Ac-[Pen][NMeR]SDTL[Pen][1Nal][dL][dK]-NH2 (disulfide 1-7 (inferred); also: homodimer via DIG) [SEQ ID NO: 113]	> 500
Ac-[Pen][NMeR]SDTL[Pen][1Nal][Tic][dK]-NH2 (disulfide 1-7 (inferred); also: homodimer via DIG) [SEQ ID NO: 115]	> 100
B4	> 50
B5	> 1000
Ac-[Pen][NMeR]SDTL[Pen][2Nal][dF][dK]-NH2 (disulfide 1-7 (inferred); also: homodimer via DIG) [SEQ ID NO: 117]	> 100
Ac-[Pen][NMeR]SDTL[Pen][1Nal][dH][dK]-NH2 (disulfide 1-7 (inferred); also: homodimer via DIG) [SEQ ID NO: 112]	> 50
Ac-[Pen][NMeR]SDTL[Pen][Bip][β3hE][dK]-NH2 (disulfide 1-7 (inferred); also: homodimer via DIG) [SEQ ID NO: 135]	< 10
Ac-[Pen][NMeR]SDTL[Pen][2Nal][dR][dK]-NH2 (disulfide 1-7 (inferred); also: homodimer via DIG) [SEQ ID NO: 120]	> 1000

Binder	IC50 [nM]
Ac-[Pen][NMeR]SDTL[Pen][2Nal][dT][dK]-NH2 (disulfide 1-7 (inferred); also: dimer via DIG linker) [SEQ ID NO: 140]	> 10
B6	> 1000
Ac-[Pen][NMeR]SDTL[Pen][1Nal][dF][dK]-NH2 (disulfide 1-7; also: dimer via DIG, attachment site not given here) [SEQ ID NO: 111]	> 100
Ac-[Pen][NMeR]SDTL[Pen]W[Tic][dK]-NH2 (disulfide 1-7; also: dimer via DIG, attachment site not given here) [SEQ ID NO: 109]	> 100
Ac-[Pen][NMeR]SDTL[Pen][Bip][dE][dK]-NH2 (disulfide 1-7; also: dimer via DIG, attachment site not given here) [SEQ ID NO: 108]	> 10
Ac-[Pen][NMeR]SDTL[Pen]W[Cit][dK]-NH2 (disulfide 1-7; also: dimer (monomer)2-DIG, DIG attachment place not given here) [SEQ ID NO: 84]	> 10
Ac-[Pen][NMeR]SDTL[Pen][Tic][dE][dK]-NH2 (disulfide 1-7; also: dimer (monomer)2-DIG, DIG attachment place not given here) [SEQ ID NO: 80]	> 50
B7	> 1000
Ac-[Pen][NMeR]SDTL[Pen][2Nal][Tic][dK]-NH2 (disulfide 1-7 (inferred); also: homodimer via DIG) [SEQ ID NO: 121]	> 100
B8	> 1000
Ac-[Pen][NMeR]SDTL[Pen][1Nal][dT][dK]-NH2 (disulfide 1-7 (inferred); also: homodimer via DIG) [SEQ ID NO: 116]	> 50
Ac-[Pen][NMeR]SDTL[Pen]WE[Dab]-NH2 (disulfide 1-7; also: dimer (monomer)2-DIG, DIG attachment place not given here) [SEQ ID NO: 97]	< 10
B9	> 1000
Ac-[Pen][NMeR]SDTL[Pen][2Nal][dY][dK]-NH2 (disulfide 1-7; also: dimer via DIG) [SEQ ID NO: 27]	> 25
Ac-[Pen][NMeR]SDTL[Pen][Bip]E[NMeK]-NH2 (disulfide 1-7 (inferred); also: homodimer via DIG) [SEQ ID NO: 136]	< 10
